Data published in US20110008350A1 (published 2011).

T1: Integrin alpha-3 (mouse, UniProt Q62470 33-1053, limits assumed)
T1 construct: also called Itga3; α3β1 integrin (alpha chain)
T1 sequence (looked up): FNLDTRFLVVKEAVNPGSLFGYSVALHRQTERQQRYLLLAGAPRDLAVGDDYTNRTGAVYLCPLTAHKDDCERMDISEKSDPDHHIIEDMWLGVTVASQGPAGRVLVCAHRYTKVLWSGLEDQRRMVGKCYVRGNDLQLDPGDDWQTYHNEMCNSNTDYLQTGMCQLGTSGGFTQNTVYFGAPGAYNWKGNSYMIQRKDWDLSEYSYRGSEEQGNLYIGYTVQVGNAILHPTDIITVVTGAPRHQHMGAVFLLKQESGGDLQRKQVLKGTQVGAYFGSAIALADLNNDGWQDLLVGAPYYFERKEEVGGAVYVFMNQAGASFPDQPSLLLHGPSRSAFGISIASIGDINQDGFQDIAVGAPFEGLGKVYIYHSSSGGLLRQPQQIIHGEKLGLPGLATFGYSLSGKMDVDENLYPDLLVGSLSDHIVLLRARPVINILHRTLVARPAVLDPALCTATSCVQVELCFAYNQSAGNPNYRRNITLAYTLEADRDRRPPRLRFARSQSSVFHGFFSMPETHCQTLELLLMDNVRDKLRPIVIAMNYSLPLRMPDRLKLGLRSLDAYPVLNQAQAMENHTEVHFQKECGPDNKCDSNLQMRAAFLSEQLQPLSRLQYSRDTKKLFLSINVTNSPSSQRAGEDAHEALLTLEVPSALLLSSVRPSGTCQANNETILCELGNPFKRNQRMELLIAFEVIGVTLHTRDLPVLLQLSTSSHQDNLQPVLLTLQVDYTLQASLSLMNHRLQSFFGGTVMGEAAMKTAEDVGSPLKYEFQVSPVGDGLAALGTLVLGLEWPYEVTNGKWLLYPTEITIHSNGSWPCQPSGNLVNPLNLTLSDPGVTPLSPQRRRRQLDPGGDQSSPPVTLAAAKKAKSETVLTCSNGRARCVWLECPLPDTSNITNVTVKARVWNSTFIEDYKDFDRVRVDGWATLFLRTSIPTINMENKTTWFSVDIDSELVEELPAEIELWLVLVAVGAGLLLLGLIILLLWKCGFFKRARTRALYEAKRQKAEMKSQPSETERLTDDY

T2: PGRL/EWI-2 (endogenous, MEF cells) (mouse, UniProt Q8R366 26-611)
T2 construct: also called Igsf8
T2 sequence (looked up): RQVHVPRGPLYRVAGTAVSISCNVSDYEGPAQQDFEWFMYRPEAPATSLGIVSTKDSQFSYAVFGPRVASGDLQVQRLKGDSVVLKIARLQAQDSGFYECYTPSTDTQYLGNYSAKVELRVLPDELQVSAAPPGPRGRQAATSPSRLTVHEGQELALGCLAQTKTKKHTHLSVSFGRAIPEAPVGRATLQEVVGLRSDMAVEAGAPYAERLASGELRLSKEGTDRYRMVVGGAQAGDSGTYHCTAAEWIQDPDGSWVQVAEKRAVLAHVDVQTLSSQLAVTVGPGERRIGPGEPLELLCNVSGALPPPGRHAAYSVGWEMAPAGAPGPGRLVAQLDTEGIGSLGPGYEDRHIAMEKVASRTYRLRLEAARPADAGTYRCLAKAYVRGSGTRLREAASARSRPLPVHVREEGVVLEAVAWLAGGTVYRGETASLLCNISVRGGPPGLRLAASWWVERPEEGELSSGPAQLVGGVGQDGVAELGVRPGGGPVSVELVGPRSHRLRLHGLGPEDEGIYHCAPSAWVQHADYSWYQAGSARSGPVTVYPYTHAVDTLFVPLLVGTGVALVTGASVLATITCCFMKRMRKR

B1: dTag PSH1 (double-tagged human Presenilin homolog 1) (other, UniProt Q8TCT6 1-384, looked up, not shown: small tags and cut ends)
chain: MAEQTYSWAYSLVDSSQVSTFLISILLIVYGSFRSLNMDFENQDKEKDSNSSSGSFNGNSTNNSIQTIDSTQALFLPIGASVSLLVMFFFFDSVQVVFTICTAVLATIAFAFLLLPMCQYLTRPCSPQNKISFGCCGRFTAAELLSFSLSVMLVLIWVLTGHWLLMDALAMGLCVAMIAFVRLPSLKVSCLLLSGLLIYDVFWVFFSAYIFNSNVMVKVATQPADNPLDVLSRKLHLGPNVGRDVPRLSLPGKLVFPSSTGSHFSMLGIGDIVMPGLLLCFVLRYDNYKKQASGDSCGAPGPANISGRMQKVSYFHCTLIGYFVGLLTATVASRIHRAAQPALLYLVPFTLLPLLTMAYLKGDLRRMWSEPFHSKSSSSRFLEV
notes: Control bait, stably expressed in PS dKO MEF cells; also called dTag SPPL3; SPP-like protease 3

How the values were obtained:
[1] = biological target: T3, Nicastrin (endogenous, MEF cells) (mouse, UniProt P57716 28-708); assay: TAP-tag purification from MEF membranes, Western blot
T3 construct: also called NCT

Integrin beta-1 = biological target: T4, Integrin beta-1 (mouse, UniProt P09055 21-798); assay: TAP-tag purification from MEF membranes, LC-MS/MS
T4 construct: also called Itgb1; α3β1 integrin (beta chain)
Experimental: (§1) Harvested MEF cells were re-suspended in STE buffer (5 mM Tris-HCl pH 7.4, 250 mM sucrose, 1 mM EGTA) supplemented with the Complete protease inhibitors. The cells were lysed by being passed ten times through a ball-bearing cell cracker followed by removal of the nuclei and cell debris by centrifugation at 800×g for ten minutes at 4° C. The supernatant was further centrifuged at 100,000×g for 60 minutes at 4° C. The microsomal membrane pellet was re-suspended in the solubilization buffer (HEPES buffer; 50 mM HEPES pH 7.2, 150 mM NaCl with 1% 3-[(3-Cholamidopropyl)dimethylammonio]-2-hydroxy-1-propanesulfonate (CHAPSO, Calbiochem) or 0.5% 3-[(3-Cholamidopropyl) dimethylammonio]-1-propanesulfonate (CHAPS, Calbiochem)) supplemented with the Complete protease inhibitors and was solubilized at 4° C. for three hours. After centrifugation at 100,000×g for 60 minutes at 4° C., the supernatant was saved and protein concentration was determined. The solubilized membranes were applied on pre-equilibrated anti-FLAG M2 affinity gel (Sigma). The gel was washed with the solubilization buffer and bound proteins were eluted with solubilization buffer with 20 μg/ml of FLAG peptides (Sigma). […] After washing, the bound proteins were eluted with 5 mM EGTA.

Integrin alpha-3 = biological target: T1, Integrin alpha-3; assay: TAP-tag purification from MEF membranes, LC-MS/MS
Experimental: as §1

[2] = biological target: T2, PGRL/EWI-2 (endogenous, MEF cells); assay: TAP-tag purification from MEF membranes, LC-MS/MS
Experimental: as §1

[3] = biological target: B1; assay: TAP-tag purification from MEF membranes, LC-MS/MS
Experimental: as §1

Row | binding result [1] | binding result (Integrin beta-1) | binding result (Integrin alpha-3) | binding result [2] | binding result [3] | Binder
1 | no binding | no binding | no binding | no binding |  | B1
2 |  |  |  |  | no binding | CD81/TAPA-1 (endogenous, MEF cells) (other, mouse, UniProt P35762 1-236, looked up) MGVEGCTKCIKYLLFVFNFVFWLAGGVILGVALWLRHDPQTTSLLYLELGNKPAPNTFYVGIYILIAVGAVMMFVGFLGCYGAIQESQCLLGTFFTCLVILFACEVAAGIWGFVNKDQIAKDVKQFYDQALQQAVMDDDANNAKAVVKTFHETLNCCGSNALTTLTTTILRNSLCPSGGNILTPLLQQDCHQKIDELFSGKLYLIGIAAIVVAVIMIFEMILSMVLCCGIRNSSVY
